According to patent US6833355 (HANSA MEDICAL, dated 2004):

B1: protein H of Streptococcus pyogenes, COOH-terminally truncated fragment expressed by and purified from E. coli (305 amino acids) (other)
chain: EGAKIDWQEEYKKLDEDNAKLVEVVETTSLENEKLKSENEENKKNLDKLSKENQGKLEKLELDYLKKLDHEHKEHQKEQQEQEERQKNQEQLERKYQREVEKRYQEQLQKQQQLETEKQISEASRKSLSRDLEASRAAKKDLEAEHQKLEAEHQKLKEDKQISDASRQGLSRDLEASRAAKKELEANHQKLEAEHQKLKEDKQISDASRQGLSRDLEASRAAKKELEANHQKLEAEAKALKEQLAKQAEELAKLRAGKASDSQTPDTKPGNKAVPGKGQAPQAGTKPNQNKAPMKETKRQLPSTG
notes: 42-346 is the same stretch counted from the first Met of the entry; Depending on the assay, protein H was coupled to CNBr-Sepharose, labelled with 125I (Bolton-Hunter), biotinylated or unlabelled; also called recombinant protein H; soluble protein H

Tests used:
[1] = target: actin from porcine heart (Sigma) (porcine, UniProt B6VNT8 3-377); assay: SPR (BIACORE X), protein H over immobilised actin; mean ± SD of three experiments
[2] = target: B1; assay: Affinity chromatography of the 35S-labelled in vitro translated peptide on protein H-Sepharose, then SDS-PAGE and autoradiography

| Binder | Ka [1] | Kd [1] | koff [1] | kon [1] | binding result [2] |
| --- | --- | --- | --- | --- | --- |
| B1 | 1.7e+06 M⁻¹ | 600 nM | 0.0015 s⁻¹ | 2500 M⁻¹ s⁻¹ | – |
| COOH-terminal fragment of NPM, in vitro translated and 35S-methionine-labelled (other, 35S-methionine label, domain: COOH-terminal half; also called COOH-terminal peptide; COOH-terminal half of NPM) GSKVPQKKVKLAADEDDDDDDEEDDDEDDDDDDFDDEEAEEKAPVKKSIRDTPAKNAQKSNQNGKDSKPSSTPRSKGQESFKKQEKTPKTPKGPSSVEDIKAKMQASIEKGGSLPKVEAKFINYVKNCFRMTDQEAIQDLWQWRKSL | – | – | – | – | no binding |
